Numbering of substitutions follows the chain as printed.
T1: Biotin-huCGRPaSA (human, not fully specified; biotin (position not given))
T1 construct: exact construct ('aSA') not explained; also called Biotin CGRPaSA; full-length (1-37) CGRP
T1 peptide: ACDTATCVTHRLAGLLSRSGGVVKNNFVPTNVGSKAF

B1: hu201 (antibody, V domains shown)
VH: QVQLVQSGAEVKKPGASVKVSCKASGYTFTDYNMHWVRQAPGQGLEWMGYIYPYNGHTVYNQKFRNRVTMTVDTSSSTAYMELRSLRSDDTAVYYCAKEGLGGYWGQGTLVTVSS
VL: EIVLTQSPATLSLSPGERATLSCKASQNIDFDGYAYMNWYQHKPGQAPRVLIYSVFNLESGIPARFSGSGSGTDFTLTISSLEPEDFAVYYCQQSHEVPYTFGQGTKLEIK
notes: 3H10 HC-1/1F5 LC1-2
B2: hu218 (antibody, V domains shown)
VH: B1 VH with M70L, K98R
VL: DVQLTQSPSFLSASVGDRVTITCQASQNIDGNTYMNWYQQKPGKAPKVLIYSIFNLESGVPSRFSGSGSGTEFTLTISSLQPEDFATYYCQQSNDYPYTFGQGTKLEIK
notes: 3H10 HC-2/2B8 LC2-2
B3: hu212 (antibody, V domains shown)
VH: B1 VH with M70L, K98R
VL: DIQLTQSPSFLSASVGDRVTITCKASQNIDYDGYAYLNWYQQKPGKAPKVLIYSVFNLESGVPSRFSGSGSGTEFTLTISSLQPEDFATYYCQQSNEFPYTFGQGTKLEIK
notes: 3H10 HC-2/1A2 LC2-4
B4: hu4 (antibody, V domains shown)
VH: B1 VH with Y52F, H57V, T58A, Q62R, N66S, M70L, V72I, K98R
VL: B3 VL
notes: 1B2 HC-1/1A2 LC2-4
B5: hu186 (antibody, V domains shown)
VH: QVQLVQSGAEVKKPGASVKVSCKTSGYTFTDYNMHWVRQAPGQRLEWMGYISPYNAGTAYNQKFKFRVTLTVDTSSSTAYMELSSLRSEDTAVYYCAREGLGGYWGQGTLVTVSS
VL: B3 VL
notes: 3E5 HC-4/1A2 LC2-4
B6: hu17 (antibody, V domains shown)
VH: B5 VH with T24A, S52F, A56G, G57V, T58A, A59V, Q62R, K65R, F66S
VL: B3 VL
notes: 1B2 HC-2/1A2 LC2-4
B7: hu49 (antibody, V domains shown)
VH: B1 VH with Y32F, G44R, H57D, T58V, K63N, R65T, M70L, R84S, D89E, K98R
VL: B2 VL
notes: 1F5 HC-2/2B8 LC2-2
B8: hu23 (antibody, V domains shown)
VH: B5 VH with T24A, S52F, A56G, G57V, T58A, A59V, Q62R, K65R, F66S
VL: B2 VL
notes: 1B2 HC-2/2B8 LC2-2
B9: hu30 (antibody, V domains shown)
VH: QVQLVQSGAEVKKPGASVKVSCKASGYTFIDFNMHWVRQAPGQRLEWMGYIYPYNGDVVYNQNFTNRVTLTVDTSSSTAYMELSSLRSEDTAVYYCAREGLGGYWGQGTLVTVSS
VL: B3 VL
notes: 1F5 HC-1/1A2 LC2-4
B10: hu134 (antibody, V domains shown)
VH: B1 VH with Y50N, G56A, H57G, R65N, M70L, R84S, S85R, K98R
VL: B3 VL
notes: 2B8 HC1-3/1A2 LC2-4
B11: hu121 (antibody, V domains shown)
VH: B1 VH with Y50N, H57G, R65N, M70L, K98R
VL: B3 VL
notes: 2B8 HC1-2/1A2 LC2-4
B12: hu147 (antibody, V domains shown)
VH: B5 VH with A56G
VL: B3 VL
notes: 3E5 HC-1/1A2 LC2-4
B13: hu13 (antibody, V domains shown)
VH: B1 VH with Y52F, H57V, T58A, Q62R, N66S, M70L, V72I, K98R
VL: B3 VL with F10S, D32G, A35S, L37M, E74D, F98A
notes: 1B2 HC-1/3H10 LC2-2
B14: hu117 (antibody, V domains shown)
VH: B1 VH with Y50N, H57G, R65N, M70L, R84S, S85R, K98R
VL: B3 VL with F10S, D32G, A35S, L37M, E74D, F98A
notes: 2B8 HC1-1/3H10 LC2-2
B15: hu43 (antibody, V domains shown)
VH: B9 VH with I30T
VL: B3 VL
notes: 1F5 HC-2/1A2 LC2-4
B16: hu173 (antibody, V domains shown)
VH: B5 VH with T24A, R44G, A56G, S85R, E89D, A92V
VL: B3 VL
notes: 3E5 HC-3/1A2 LC2-4
B17: hu130 (antibody, V domains shown)
VH: B1 VH with Y50N, H57G, R65N, M70L, K98R
VL: B3 VL with F10S, D32G, A35S, L37M, E74D, F98A
notes: 2B8 HC1-2/3H10 LC2-2
B18: hu214 (antibody, V domains shown)
VH: B1 VH with M70L, K98R
VL: B1 VL
notes: 3H10 HC-2/1F5 LC1-2
B19: hu143 (antibody, V domains shown)
VH: B1 VH with Y50N, G56A, H57G, R65N, M70L, R84S, S85R, K98R
VL: B3 VL with F10S, D32G, A35S, L37M, E74D, F98A
notes: 2B8 HC1-3/3H10 LC2-2
B20: hu211 (antibody, V domains shown)
VH: B1 VH with M70L, K98R
VL: B1 VL with F31Y, M37L, H42Q, H96N, V98F
notes: 3H10 HC-2/1A2 LC2-3
B21: hu36 (antibody, V domains shown)
VH: B9 VH
VL: B2 VL
notes: 1F5 HC-1/2B8 LC2-2
B22: hu95 (antibody, V domains shown)
VH: B5 VH with T24A, I51V, S52Y, A56G, T58S, F66S
VL: B3 VL
notes: 2A2 HC-1/1A2 LC2-4
B23: hu221 (antibody, V domains shown)
VH: B1 VH with M70L, K98R
VL: B3 VL with F10S, D32G, A35S, L37M, E74D, F98A
notes: 3H10 HC-2/3H10 LC2-2
B24: hu108 (antibody, V domains shown)
VH: B1 VH with Y50N, H57G, R65N, M70L, R84S, S85R, K98R
VL: B3 VL
notes: 2B8 HC1-1/1A2 LC2-4
B25: hu199 (antibody, V domains shown)
VH: B1 VH
VL: B3 VL
notes: 3H10 HC-1/1A2 LC2-4
B26: hu160 (antibody, V domains shown)
VH: B5 VH with T24A, A56G
VL: B3 VL
notes: 3E5 HC-2/1A2 LC2-4
B27: hu10 (antibody, V domains shown)
VH: B1 VH with Y52F, H57V, T58A, Q62R, N66S, M70L, V72I, K98R
VL: B2 VL
notes: 1B2 HC-1/2B8 LC2-2
B28: hu82 (antibody, V domains shown)
VH: B9 VH with G56A, N63D
VL: B3 VL
notes: 1F5 HC-5/1A2 LC2-4
B29: hu65 (antibody, V domains shown)
VH: B9 VH with I30T, R44G, S84R, E89D
VL: B3 VL with F10S, D32G, A35S, L37M, E74D, F98A
notes: 1F5 HC-3/3H10 LC2-2
B30: hu56 (antibody, V domains shown)
VH: B9 VH with I30T, R44G, S84R, E89D
VL: B3 VL
notes: 1F5 HC-3/1A2 LC2-4
B31: hu208 (antibody, V domains shown)
VH: B1 VH
VL: B3 VL with F10S, D32G, A35S, L37M, E74D, F98A
notes: 3H10 HC-1/3H10 LC2-2

Molecular target: T1, Biotin-huCGRPaSA
Assay: ELISA, supernatant; relative to chimeric C245
Outline: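 Antibodies, including reference chimeric C245, titrated 2.5-fold from 1000 ng/mL and incubated 60 min at 37°C on wells coated with 1.0 μg/mL biotin-CGRPaSA and blocked with 2% BSA. Bound IgG detected with HRP anti-human Fc antibody and TMB, acid-stopped, absorbance 450/620 nm.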

Point of comparison: B30, “Relative binding activity, %” value 53%. Against it:
- B1 — higher, 67%
- B2 — lower, 24%
- B3 — lower, 38%
- B4 — higher, 58%
- B5 — the same, 53%
- B6 — lower, 35%
- B7 — higher, 60%
- B8 — lower, 17%
- B9 — lower, 47%
- B10 — higher, 86%
- B11 — lower, 49%
- B12 — higher, 111%
- B13 — lower, 27%
- B14 — lower, 36%
- B15 — lower, 44%
- B16 — higher, 92%
- B17 — the same, 53%
- B18 — higher, 57%
- B19 — lower, 41%
- B20 — higher, 54%
- B21 — lower, 40%
- B22 — lower, 43%
- B23 — lower, 24%
- B24 — higher, 70%
- B25 — lower, 41%
- B26 — lower, 50%
- B27 — lower, 14%
- B28 — higher, 97%
- B29 — lower, 20%
- B31 — lower, 15%
